From patent US20250163130A1, “LIGAND GATED ION CHANNELS AND METHODS OF USE” (Trames Bio, Inc., priority 2022, published 2025)

Columns and labels:
[1] = molecular target: T1, CODA1237 (Homo sapiens, UniProt P36544, F159M/H163T/I152M/R155K/V154L/W156N/Y151P); assay: Anion reporter (YFP quench) plate assay, ligand response of cells expressing CODA1237 compared with CODA71; format: cell-based; conditions: FIG. 1, various ligand doses
T1 construct: expressed in transfected cells; host or cells: Lenti-X 293T (LX293T, Clontech) stably expressing mutant YFP (H148Q/I152L) reporter
T1 sequence (P36544 with tags, fused parts or gaps Y151P/I152M/V154L/R155K/W156N/F159M/H163T): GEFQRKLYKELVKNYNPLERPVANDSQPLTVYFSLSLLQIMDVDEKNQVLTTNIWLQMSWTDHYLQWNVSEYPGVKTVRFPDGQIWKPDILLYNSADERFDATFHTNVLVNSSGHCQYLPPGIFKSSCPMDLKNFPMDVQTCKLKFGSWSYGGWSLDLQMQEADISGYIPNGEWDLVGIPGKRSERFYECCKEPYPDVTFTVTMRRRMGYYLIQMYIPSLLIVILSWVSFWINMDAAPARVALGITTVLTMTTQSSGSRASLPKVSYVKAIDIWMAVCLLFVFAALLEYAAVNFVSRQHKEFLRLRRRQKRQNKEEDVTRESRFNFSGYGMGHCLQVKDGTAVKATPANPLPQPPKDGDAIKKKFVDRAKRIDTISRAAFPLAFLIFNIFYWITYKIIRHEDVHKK

[2] = tested on: rat model of neuropathic pain; assay: Spared nerve injury (SNI) rat model of neuropathic pain, mechanical withdrawal threshold; format: in vivo; conditions: SNI rats injected with AAV.hSYN encoding engineered receptor; repeat IP injection on the third day
Procedure: The engineered receptors disclosed herein are assessed for their ability to provide analgesia in a rat model of neuropathic pain following administration of a small molecule ligand. AAV expression cassettes containing a human synapsin-1 (hSYN) promoter linked to polynucleotides encoding either a wild type α7-nAChR, or any one of the engineered chimeric receptors disclosed herein are constructed using standard molecular biology techniques.
Behavioral experiments and pain models: To produce mechanical hypersensitivity in a model that mimics a neuropathic pain condition, the spared nerve injury (SNI) model (a validated model of mechanical allodynia) is used (Shields et al., 2003, The Journal of Pain, 4, 465-470). This model is produced by the sectioning of the common peroneal and the sural nerves and isolating the tibial branch. Mechanical withdrawal threshold is assessed by placing rats on an elevated wire-mesh grid and stimulating the plantar surface of the hind paw with von Frey filaments.
Effects of administration: This SNI model is produced by the sectioning of the common peroneal and the sural nerves and isolating the tibial branch of the rat. […] The duration that the rat spends on the rotarod is recorded, with a cut-off at 300 sec. […]

[3] = tested on: HEK cells; assay: Peak current measurement on IonFlux in HEK cells; format: cell-based; conditions: held at −60 mV
Procedure: HEK 293 cells were routinely subcultured in DMEM with 10% fetal bovine serum (ThermoFisher Scientific). Cells were plated in 15 cm dishes 24 hours prior to transfection with Fugene 6 (Promega, E2691) and plasmid DNA (total of 20 μg DNA). 24 hours post transfection, cells were lifted with Accutase (Sigma, A6964) then resuspended in serum free media (CHO—S-SFM II, ThermoFisher Scientific 12052 with 25 mM HEPES, ThermoFisher Scientific, 15630080) to rest for 30-90 min before being loaded onto IonFlux (Fluxion Biosciences) for experiments. Recordings were made in extracellular solution (ECS) containing (in mM): 140 sodium chloride (S7653), 4 potassium chloride (P9333), 1 magnesium chloride (M2670), 2 calcium chloride (C3881), 10 HEPES (54457), and 10 D-(+)-glucose (G7528) (pH=7.3 with sodium hydroxide, osmolarity=305-315 mOsm). Intracellular solution (ICS) contains (in mM): 140 cesium chloride (289329), 5 potassium fluoride (60238), 2 Calcium chloride (P9333), 2 magnesium chloride (M2670), 10 HEPES (54457), and 10 EGTA (3777) (pH=7.2 with cesium hydroxide, osmolarity=290-295 mOsm).
Drug-induced currents were recorded in ensemble mode (20 cells are patched per recording channel). Cells were held at −60 mV and current across the membrane was recorded at 1 kHz sampling rate. Drugs tested include acetycholine chloride (A6625) and other synthetic compounds. […]

[4] = tested on: HEK cells; assay: Peak current measurement by manual patch clamp in HEK cells; format: cell-based; conditions: held at −60 mV
Procedure: Cell culture: HEK 293 cells were routinely subcultured in DMEM with 10% fetal bovine serum (ThermoFisher Scientific). Cells were plated in six-well dishes 24 hours prior to transfection with Fugene 6 (Promega, E2691) and plasmid DNA (total of 1 μg DNA). 24 hours post transfection, cells were replated onto 10 mm PDL and collagen coated coverslips, before being used for patch clamp experiments 24-48 hours later. For dorsal root ganglion neuron experiments, adult rat lumbar ganglia were harvested and dissociated according to standard protocols, cultured on glass coverslips coated with poly-L-lysine and mouse laminin, transduced on DIV1 with ires-GFP-containing lentiviral or AAV6 vectors, and processed for immunocytochemistry on DIV7. For hippocampal neuron experiments, hippocampi were harvested from embryonic day 18 rat pups or postnatal day 0 mouse pups and dissociated according to standard protocols. […]
Whole-cell patch clamp recording protocol: Cells plated on coverslips were visualized at 10× and 40× on an inverted fluorescence microscope (Olympus). […] Traces were either analyzed in Clampfit (Molecular Devices) or using custom Python code. […]
Dose-response experiments: Drug-induced currents were recorded in voltage clamp mode. […]

[5] = tested on: HEK cells; assay: TC-5619 / acetylcholine dose response and peak current of engineered receptors in HEK cells (FIGS. 5C-5F); format: cell-based; conditions: for Response to TC-5619 (dose response), compared with CODA71: FIGS. 5C-5E

Molecule	Responsiveness (percent quench of YFP fluorescence) of cells expressing CODA1237 compared with cells expressing CODA71 [1]	Mechanical withdrawal thresholds (up-down method) after IP injection of ligand [2]	Peak Current on IonFlux in HEK Cells [3]	Peak Current on Manual Patch Clamp in HEK cells [4]	Response to acetylcholine (dose response), compared with CODA71 ([5]; FIGS. 5C-5D)	Response to TC-5619 (dose response), compared with CODA71 [5]	Peak current when activated by TC-5619, compared with CODA1055 ([5]; FIG. 5F)
c1cnc2c(c1)C[C@@]1(CN3CCC1CC3)O2 [AZD-0328]	more responsive	recovery to non-injury baseline thresholds					
CODA1055: α7-nAChR(Gly-cys) LBD: GlyRα1 IPD, SEQ ID NO: 33 comprising R101W, Y115E, Y210W mutations (protein, synthetic sequence of chimeric LGIC) MRCSPGGVWLALAASLLHVSLQGEFQRKLYKELVKNYNPLERPVANDSQPLTVYFSLSLLQIMDVDEKNQVLTTNIWLQMSWTDHYLQWNVSEYPGVKTVWFPDGQIWKPDILLENSADERFDATFHTNVLVNSSGHCQYLPPGIFKSSCPMDLKNFPMDVQTCKLKFGSWSYGGWSLDLQMQEADISGYIPNGEWDLVGIPGKRSERFWECCKEPYPDVTFTVTMRRRMGYYLIQMYIPSLLIVILSWISFWINMDAAPARVGLGITTVLTMTTQSSGSRASLPKVSYVKAIDIWMAVCLLFVFSALLEYAAVNFVSRQHKELLRFRRKRRHHKSPMLNLFQEDEAGEGRFNFSAYGMGPACLQAKDGISVKGANNSNTTNPPPAPSKSPEEMRKLFIQRAKKIDKISRIGFPMAFLIFNMFYWIIYKIVRREDVHNQ			−5074.3 picoamps (pA)	−2176.6 picoamps (pA)	reduced response	increased response	
CODA1316: α7-nAChR(Gly-cys) LBD: GlyRα2 IPD, SEQ ID NO: 65 comprising R101W, Y115E, Y210W, T225I mutations (protein, CHRNA7 (Cys-loop)/GLRA2) MRCSPGGVWLALAASLLHVSLQGEFQRKLYKELVKNYNPLERPVANDSQPLTVYFSLSLLQIMDVDEKNQVLTTNIWLQMSWTDHYLQWNVSEYPGVKTVWFPDGQIWKPDILLENSADERFDATFHTNVLVNSSGHCQYLPPGIFKSSCPMDLKNFPMDVQTCKLKFGSWSYGGWSLDLQMQEADISGYIPNGEWDLVGIPGKRSERFWECCKEPYPDVTFTVIMRRRMGYYLIQMYIPSLLIVILSWVSFWINMDAAPARVALGITTVLTMTTQSSGSRASLPKVSYVKAIDIWMAVCLLFVFAALLEYAAVNFVSRQHKEFLRLRRRQKRQNKEEDVTRESRFNFSGYGMGHCLQVKDGTAVKATPANPLPQPPKDGDAIKKKFVDRAKRIDTISRAAFPLAFLIFNIFYWITYKIIRHEDVHKK			−5520.5 picoamps (pA)	−2779 picoamps (pA)		increased response	increased peak current
